This is an account of results in PMC2216138 (The Journal of General Physiology, 1988).

Assay [1] concerns the target T1, High-conductance, Ca2+-activated K+ channel from rat skeletal muscle (rat (endogenous in skeletal muscle), UniProt Q62976 1-1209). The experiment in a line: single-channel recording in planar lipid bilayers.
The target in assay [2] is T1, High-conductance, Ca2+-activated K+ …. The experiment in a line: single-channel recording in planar lipid bilayers. The source holds these as a separate data set.

Read-outs that look alike come from different tables or passages of the source.

T1 sequence (Q62976 whole entry): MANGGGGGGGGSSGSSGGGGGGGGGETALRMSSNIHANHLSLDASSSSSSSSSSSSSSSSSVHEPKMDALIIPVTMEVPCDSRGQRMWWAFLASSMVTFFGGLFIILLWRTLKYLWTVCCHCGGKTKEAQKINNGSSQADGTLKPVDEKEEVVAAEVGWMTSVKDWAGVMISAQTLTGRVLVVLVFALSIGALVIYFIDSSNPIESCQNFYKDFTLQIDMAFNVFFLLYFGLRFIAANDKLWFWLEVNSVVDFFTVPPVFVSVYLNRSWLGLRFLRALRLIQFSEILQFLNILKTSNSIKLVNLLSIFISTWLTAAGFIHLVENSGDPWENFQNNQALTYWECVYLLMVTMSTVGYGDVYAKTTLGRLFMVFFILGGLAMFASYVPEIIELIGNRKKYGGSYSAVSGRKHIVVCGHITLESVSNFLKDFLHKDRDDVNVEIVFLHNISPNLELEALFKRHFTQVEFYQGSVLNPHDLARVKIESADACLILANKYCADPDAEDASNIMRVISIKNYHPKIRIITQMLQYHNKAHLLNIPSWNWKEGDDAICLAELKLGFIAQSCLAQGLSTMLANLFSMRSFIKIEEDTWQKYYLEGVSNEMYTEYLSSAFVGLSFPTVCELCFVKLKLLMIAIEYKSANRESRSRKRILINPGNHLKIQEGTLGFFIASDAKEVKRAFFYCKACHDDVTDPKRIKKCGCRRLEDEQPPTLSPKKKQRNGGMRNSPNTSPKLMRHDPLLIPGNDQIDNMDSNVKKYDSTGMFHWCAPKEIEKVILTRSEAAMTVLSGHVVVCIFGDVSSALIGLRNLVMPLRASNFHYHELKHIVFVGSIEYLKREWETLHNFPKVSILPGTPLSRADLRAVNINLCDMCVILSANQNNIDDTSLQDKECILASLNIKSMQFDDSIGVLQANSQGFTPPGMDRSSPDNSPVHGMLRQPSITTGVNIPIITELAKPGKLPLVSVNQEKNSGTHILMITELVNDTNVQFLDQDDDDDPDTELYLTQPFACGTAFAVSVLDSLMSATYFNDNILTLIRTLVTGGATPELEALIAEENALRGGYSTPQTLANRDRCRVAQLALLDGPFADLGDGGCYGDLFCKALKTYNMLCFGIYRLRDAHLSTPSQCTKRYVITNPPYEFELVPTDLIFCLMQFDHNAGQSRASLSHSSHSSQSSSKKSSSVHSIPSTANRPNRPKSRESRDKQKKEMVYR

Regarding QFTNVSCTTSKECWSVCQRLHNTSRGKCMNKKCRCYS (natural protein) [Charybdotoxin], the koff in assay [1] was about 0.01 s⁻¹; in assay [2], 0.01 s⁻¹.

As a reminder, the koff is a measure of how fast the partners let go of each other.
